For 3 molecules, Kd results are on record in publication PMC4813479 (2015).

Non-standard residues stand in square brackets, D forms with d. No end group written: not given here.

The target in this assay is recombinant αIIbβ3 headpiece. Kind of assay: FP.
Broadly, the Kd is the free concentration of one partner at which half of the binding sites on the other are occupied at equilibrium, for simple one-to-one binding. Regarding AGDV-NH2 [AGDV-NH2 (amidated AGDV)], the Kd came out at 50.9 µM.
With AGDV-OMe [AGDV-OCH3 (O-methylated AGDV)] the figure was 67.6 µM; with AGD[dV] [AGD(v) (D-valine in place of L-valine)], 217 µM.
